This is an account of results in IntAct's records for PubMed 22135460.

One experiment addresses rpos_ecoli rpoS (UniProt P13445).
For the next experiment, the target named is rpod_ecoli rpoD (UniProt P00579).
A further experiment deals with T1, ltact_bpt4 33 (UniProt P13338).
T1 sequence: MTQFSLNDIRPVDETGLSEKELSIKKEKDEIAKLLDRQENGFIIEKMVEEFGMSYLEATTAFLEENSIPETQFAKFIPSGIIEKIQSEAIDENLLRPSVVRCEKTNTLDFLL

Sequence of rpod_ecoli rpoD (P00579 whole entry): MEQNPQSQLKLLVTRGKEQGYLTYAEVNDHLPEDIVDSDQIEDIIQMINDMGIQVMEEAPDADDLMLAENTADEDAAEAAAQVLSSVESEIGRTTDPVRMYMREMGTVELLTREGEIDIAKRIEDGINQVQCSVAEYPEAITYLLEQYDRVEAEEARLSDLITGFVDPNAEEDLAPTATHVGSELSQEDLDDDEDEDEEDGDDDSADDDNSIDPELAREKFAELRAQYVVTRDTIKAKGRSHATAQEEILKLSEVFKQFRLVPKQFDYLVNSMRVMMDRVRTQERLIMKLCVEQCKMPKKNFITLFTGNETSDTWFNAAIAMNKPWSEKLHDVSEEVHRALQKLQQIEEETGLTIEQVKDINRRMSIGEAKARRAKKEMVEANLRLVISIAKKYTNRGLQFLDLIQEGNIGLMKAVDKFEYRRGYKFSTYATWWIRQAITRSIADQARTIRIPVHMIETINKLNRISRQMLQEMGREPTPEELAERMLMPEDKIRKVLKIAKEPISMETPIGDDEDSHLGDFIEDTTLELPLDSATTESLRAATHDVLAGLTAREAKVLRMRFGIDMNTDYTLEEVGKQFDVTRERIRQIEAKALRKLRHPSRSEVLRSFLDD
Sequence of rpos_ecoli rpoS (P13445 whole entry): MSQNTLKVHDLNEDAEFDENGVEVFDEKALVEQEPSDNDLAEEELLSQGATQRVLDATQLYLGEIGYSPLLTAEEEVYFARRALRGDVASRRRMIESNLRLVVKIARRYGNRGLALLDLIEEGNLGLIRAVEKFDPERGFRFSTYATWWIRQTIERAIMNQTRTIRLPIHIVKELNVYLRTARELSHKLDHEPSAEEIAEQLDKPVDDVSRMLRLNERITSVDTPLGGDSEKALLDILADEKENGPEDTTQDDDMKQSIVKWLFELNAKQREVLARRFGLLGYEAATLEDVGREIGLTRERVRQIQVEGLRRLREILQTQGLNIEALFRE

As for “DNA-directed RNA polymerase subunit beta (Escherichia coli (strain K12)) (from UniProt P0A8V2) E898A”, the “effect of a mutation on the interaction” value with rpos_ecoli rpoS is “decreasing interaction strength”; with rpod_ecoli rpoD, “disrupting interaction strength”; with ltact_bpt4 33, “disrupting interaction strength”.

With “DNA-directed RNA polymerase subunit beta (Escherichia coli (strain K12)) (from UniProt P0A8V2) E899A”, the figures for the “effect of a mutation on the interaction” value in the experiment with rpod_ecoli rpoD and in the experiment with ltact_bpt4 33 were “decreasing interaction strength” and “disrupting interaction strength”, respectively.

As to “DNA-directed RNA polymerase subunit beta (Escherichia coli (strain K12)) (from UniProt P0A8V2) F906A”, the “effect of a mutation on the interaction” value with rpos_ecoli rpoS was “decreasing interaction strength”; with rpod_ecoli rpoD, “disrupting interaction strength”; in the experiment with ltact_bpt4 33 it was “disrupting interaction strength”.

In the case of “DNA-directed RNA polymerase subunit beta (Escherichia coli (strain K12)) (from UniProt P0A8V2) I905A”, the “effect of a mutation on the interaction” value in the experiment with rpos_ecoli rpoS was “decreasing interaction strength”; in the experiment with rpod_ecoli rpoD it was “disrupting interaction strength”; with ltact_bpt4 33, “disrupting interaction strength”.

As to “DNA-directed RNA polymerase subunit beta (Escherichia coli (strain K12)) (from UniProt P0A8V2) K900A”, the “effect of a mutation on the interaction” value with rpod_ecoli rpoD and with ltact_bpt4 33 was “disrupting interaction strength” each time.

“DNA-directed RNA polymerase subunit beta (Escherichia coli (strain K12)) (from UniProt P0A8V2) K900E”: the “effect of a mutation on the interaction” value with ltact_bpt4 33 is “disrupting interaction strength”.

In the case of “DNA-directed RNA polymerase subunit beta (Escherichia coli (strain K12)) (from UniProt P0A8V2) L901A”, the “effect of a mutation on the interaction” value with rpos_ecoli rpoS, in the experiment with rpod_ecoli rpoD and with ltact_bpt4 33 was “disrupting interaction strength” throughout.

As to “DNA-directed RNA polymerase subunit beta (Escherichia coli (strain K12)) (from UniProt P0A8V2) L902A”, the “effect of a mutation on the interaction” value with rpos_ecoli rpoS is given as “decreasing interaction strength”; with rpod_ecoli rpoD it was “disrupting interaction strength”; with ltact_bpt4 33, “disrupting interaction strength”.

With “DNA-directed RNA polymerase subunit beta (Escherichia coli (strain K12)) (from UniProt P0A8V2) R903A”, the “effect of a mutation on the interaction” value in the experiment with rpos_ecoli rpoS is “decreasing interaction strength”; with rpod_ecoli rpoD, “decreasing interaction strength”; with ltact_bpt4 33, “disrupting interaction strength”.
